US20250066476A1 (TENEOONE, published 2025)

B1: anti-PSMA heavy-chain antibody clone ID 346172 (antibody, V domains shown)
VH: QLQLQESGPGLVKPSETLSLTCTVSGGSISSSSYYWGWIRQPPGKGLEWIGSIDYSGYTYYNPSLKSRVTISVDTSKNQFSLKLSSVTAADTAVYNCARHKAATADFDYRGQGTLVTVSS
notes: heavy chain-only antibody (UniAb/HCAb)
B2: anti-PSMA heavy-chain antibody clone ID 326109 (antibody, V domains shown)
VH: QLQLQESGPGLVKPSETLSLTCTVSGGSISSNSYYWGWIRQSPGKGLEWLGSIYDSGSTHYNPSLKSRVIISGDTSKNQFSLKLSSVTAADTAVYYCARHKAATADFDYRGQGTLVTVSS
notes: as for B1
B3: anti-PSMA heavy-chain antibody clone ID 346181 (antibody, V domains shown)
VH: QLQLQESGPGLVKPSETLSLTCTVSGGSISSSNYFWGWIRQSPGKGLEWIGSIDYSGYTYYNPSLKSRVTISVDTSKNQFSLKLSSVTAADTAVYNCARHKAATADFDYRGQGTLVTVSS
notes: as for B1
B4: anti-PSMA heavy-chain antibody clone ID 325920 (antibody, V domains shown)
VH: QLQLQESGPGLVKPSETLSLTCTVSGGSISSSSYYWGWIRQPPGKGLEWIGSIDYSGYTYYNPSLQSRVTISVDTSKNQFSLKLSSVTAADTAVYNCARHKAATADFDYRGQGTLVTVSS
notes: as for B1
B5: anti-PSMA heavy-chain antibody clone ID 346165 (antibody, V domains shown)
VH: QLQLQESGPGLVKPSETLSLTCTVSGGSISSSSYYWGWIRQPPGKGLEWIGSVDYSGYTYYNPSLQSRVTISVDTSKNQFSLKLSSVTAADTAVYNCARHKAATADFDYRGQGTLVTVSS
notes: as for B1
B6: anti-PSMA heavy-chain antibody clone ID 325748 (antibody, V domains shown)
VH: QVQLVESGGGVVQPGRSLRLSCAASGFSFSSYGMHWVRQAPGKGLEGVAVIWYDGSNRYYADSVKGRFTISRDNSKNTLYLQMNSLRAEDTAVYYCAREPRIGYYYESSGYYSLDYRGQGTLVTVSS
notes: as for B1
B7: anti-PSMA heavy-chain antibody clone ID 325867 (antibody, V domains shown)
VH: QVQLVESGGGVVQPGRSLRLSCAASGFSFRSYGMHWVRQAPGKGLEWVAVIWYDGSNKYYADSVKGRFTISRDYSKNTLYLQMNSLRAEDTAVYYCAREPRIGYYYESSGYDSLDYRGQGTLVTVSS
notes: as for B1
B8: anti-PSMA heavy-chain antibody clone ID 326087 (antibody, V domains shown)
VH: QVQLVESGGGVVQPGRSLRLSCAASGFIFRSYGMHWVRQAPGKGPEWVAVIWYDGSNKYYADSVKGRFTISRDNSKNTLYLQMNSLRAEDTAVYYCAREPRIGYYYDSSGYDSLDYRGQGTLVTVSS
notes: as for B1
B9: anti-PSMA heavy-chain antibody clone ID 345438 (antibody, V domains shown)
VH: QVQLVESGGGVVQPGRSLRLSCAASGFSFSSYGMHWVRQAPGKGPEWVAVIWYDGSNKYYADSVKGRFTISRDNSKNTLYLQMNSLRAEDTAVYYCAREPRIGYYYESSGYYSLDYRGQGTLVTVSS
notes: as for B1
B10: anti-PSMA heavy-chain antibody clone ID 345447 (antibody, V domains shown)
VH: QVQLVESGGGVVQPGRSLRLSCAASGFSFSSYGMHWVRQAPGKGLEGVAVISYDGSNRYYADSVKGRFTISRDNSKNTLYLQMNSLRAEDTAVYYCAREPRIGYYYESSGYYSLDYRGQGTLVTVSS
notes: as for B1
B11: anti-PSMA heavy-chain antibody clone ID 345461 (antibody, V domains shown)
VH: QVQLVESGGGVVQPGRSLRLSCAASGFSFTSYGMHWVRQAPGKGLEGVAVIWYDGSNRYYADSVKGRFTISRDNSKNTLYLQMNSLRAEDTAVYYCAREPRIGYYYESSGYYSLDYRGQGTLVTVSS
notes: as for B1
B12: anti-PSMA heavy-chain antibody clone ID 345444 (antibody, V domains shown)
VH: QVQLVESGGGVVQPGRSLRLSCAASGFTFSSYGMHWVRQAPGKGLEGVAVIWYDGSNRYYADSVKGRFTISRDNSKNTLYLQMNSLRAEDTAVYYCAREPRIGYYYESSGYYSLDYRGQGTLVTVSS
notes: as for B1
B13: anti-PSMA heavy-chain antibody clone ID 345490 (antibody, V domains shown)
VH: QVQLVESGGGLVKPGGSLRLSCAASGFSFSSYGMHWVRQAPGKGLEGVAVIWYDGSNRYYADSVKGRFTISRDNSKNTLYLQMNSLRAEDTAVYYCAREPRIGYYYESSGYYSLDYRGQGTLVTVSS
notes: as for B1
B14: anti-PSMA heavy-chain antibody clone ID 326084 (antibody, V domains shown)
VH: QVQLVESGGGVVQPGRSLRLSCAASGFSFSSYGMHWVRQAPGKGLEGVAVIWYDGSNRYYADSVKGRFTISRDNSKNTLYLQMNSLRAEDTAVYYCAREPRIGYYYDSSGYYSLDYRGQGTLVTVSS
notes: as for B1
B15: anti-PSMA heavy-chain antibody clone ID 326028 (antibody, V domains shown)
VH: QVQLVESGGGVVQPGRSLRLSCAASGFSFRSYGMHWVRQAPGKGLEWVAVISYDGSNKYYADSVKGRFTISRDYSKNTLYLQMNSLRAEDTAVYYCAREPRIGYYYDSSGYDSLDYRGQGTLVTVSS
notes: as for B1
B16: anti-PSMA heavy-chain antibody clone ID 325836 (antibody, V domains shown)
VH: QVQLVESGGGVVQPGRSLRLSCAASGFSFRSYGMHWVRQAPGKGLEWVAVIWYDGSNKYYADSVKGRFTISRDYSKNTLYLQMNSLRAEDTAVYYCAREPRIGYYYDSSGYDSLDYRGQGTLVTVSS
notes: as for B1
B17: anti-PSMA heavy-chain antibody clone ID 345463 (antibody, V domains shown)
VH: QVQLVESGGGVVQPGRSLRLSCAASGFIFRSYGMHWVRQAPGKGPEWVAVIWYDGSNKYYADSVKGRFTISRDNSKNTLYLQMNSLRAEDTAVYYCAREPRIGYYYESSGYYSLDYRGQGTLVTVSS
notes: as for B1
B18: anti-PSMA heavy-chain antibody clone ID 325742 (antibody, V domains shown)
VH: QVQLVESGGGVVQPGRSLRLSCAASGFSFSSYGMHWVRQAPGKGLEWVAVIWYDGSNKYYADSVKGRFTISRDYSKNTLYLQMNSLRAEDTAVYYCAREPRIGYYYESSGYDSLDYRGQGTLVTVSS
notes: as for B1
B19: anti-PSMA heavy-chain antibody clone ID 345485 (antibody, V domains shown)
VH: QVQLVESGGGVVQPGRSLRLSCAASGFSFRSYGMHWVRQAPGKGLEWVAVIWYDGSNKYYADSVKGRFTISRDNSKNTMYLQMNSLRAEDTAVYYCAREPRIGYYYESSGYYSLDYRGQGTLVTVSS
notes: as for B1
B20: anti-PSMA heavy-chain antibody clone ID 345421 (antibody, V domains shown)
VH: QVQLVESVGGVVQPGRSLRLSCAASGFSFSSYGMHWVRQAPGKGLEGVAVIWYDGSNRYYADSVKGRFTISRDNSKNTLYLQMNSLRAEDTAVYYCAREPRIGYYYESSGYYSLDYRGQGTLVTVSS
notes: as for B1
B21: anti-PSMA heavy-chain antibody clone ID 345436 (antibody, V domains shown)
VH: QVQLVESGGGVVQPGRSLRLSCAASGFSFSRYGMHWVRQAPGKGLEGVAVIWYDGSNKYYADSVKGRFTISRDNSKNTLYLQMNSLRAEDTAVYYCAREPRIGYYYESSGYYSLDYRGQGTLVTVSS
notes: as for B1
B22: anti-PSMA heavy-chain antibody clone ID 345482 (antibody, V domains shown)
VH: QVQLVESGGGVVQPGRSLRLSCAASGFSFSSYGMHWVRQAPGKGLEGVAVIWYDGSNRYYADSVKGRFTISRDSSKNTLYLQMNSLRAEDTAVYYCAREPRIGYYYESSGYYSLDYRGQGTLVTVSS
notes: as for B1
B23: anti-PSMA heavy-chain antibody clone ID 345443 (antibody, V domains shown)
VH: QVQLVESGGGVVQPGRSLRLSCAASGFSFSSYGMHWVRQAPGKGLEGVAVIWYDGSNRYYADSVKGRFTISRDNSKNTLFLQMNSLRAEDTAVYYCAREPRIGYYYESSGYYSLDYRGQGTLVTVSS
notes: as for B1
B24: anti-PSMA heavy-chain antibody clone ID 325940 (antibody, V domains shown)
VH: QVQLVESGGGVVQPGRSLRLSCAASGFIFRSYGMHWVRQAPGKGPEWVAVIWYDGSNKYYADSVKGRFTISRDNSKNTLYLQMNSLRAEDTAVYYCAREPRIGYYYESSGYYSLDYRGQGTLVTVSS
notes: as for B1
B25: anti-PSMA heavy-chain antibody clone ID 326029 (antibody, V domains shown)
VH: QVQLVESGGGVVQPGRSLRLSCAASGFSFSRYGMHWVRQAPGKGLEWVAVISYDGSNKYYADSVKGRFTISRDNSKNTLYLQMNSLRAEDTAVYYCAREPRVGYYYETSGYYSLDYRGQGTLVTVSS
notes: as for B1
B26: anti-PSMA heavy-chain antibody clone ID 345480 (antibody, V domains shown)
VH: QVQLVESGGGVVQPGRSLRLSCAASGFSFSSYGMHWVRQAPGKGLEWVAVIWYDGSNRYYADSVKGRFTISRDNSKNTLYLQMNSLRAEDTAVYYCAREPRIGYYYESSGYYSLDYRGQGTLVTVSS
notes: as for B1
B27: anti-PSMA heavy-chain antibody clone ID 326027 (antibody, V domains shown)
VH: QVQLVESGGGVVQPGRSLRLSCAASGFSFRSYGMHWVRQAPGKGLEWVAVIWYDGSNKYYADSVKGRFTISRDNSKNTLYLQMNSLRAEDTAVYYCAREPRIGYYYDSSGYDSLDYRGQGTLVTVSS
notes: as for B1
B28: anti-PSMA heavy-chain antibody clone ID 326116 (antibody, V domains shown)
VH: QVQLVESGGGVVQPGRSLRLSCAASGFSFSRYGMHWVRQAPGKGLEGVAVISYDGSNKYYADSVKGRFTISRDYSKNTLYLQMNSLRAEDTAVYYCAREPRIGYYYDSSGYDSLDYRGQGTLVTVSS
notes: as for B1

Biological target: T1, human PSMA (Prostate Specific Membrane Antigen, Glutamate Carboxypeptidase II) (human, UniProt Q04609 1-750)
T1 construct: whole, on cells; the cell line is named under assay; also called FOLH1
Assay: flow cytometry on LNCaP cells
Description: Briefly, 50,000 target cells were stained with a dilution series of purified UniAbs™ for 30 minutes at 4° C. Following incubation, the cells were washed twice with flow cytometry buffer (1×PBS, 1% BSA, 0.1% NaN₃) and stained with goat F(ab′)₂ anti-human IgG conjugated to R-phycoerythrin (PE) (Southern Biotech, cat. #2042-09) to detect cell-bound antibodies. After a 20-minute incubation at 4° C., the cells were washed twice with flow cytometry buffer and the mean fluorescence intensity (MFI) was measured by flow cytometry. The MFI of cells stained with secondary antibody alone were used for determination of background signal and binding of each antibody was converted to fold over background. Binding to cynomolgus PSMA positive cells was determined using the same protocol with the following modifications: the target cells were from Freestyle 293-F cells (ThermoFisher R79007) transiently transfected to express the extracellular domain of cynomolgus PSMA. In some experiments EC50 values were calculated using GraphPad Prism 7.
Column 1 indicates the clone ID of the HCAb. Column 2 indicates binding to LNCaP cells measured as fold over the background MFI signal.

T1 sequence (Q04609 whole entry): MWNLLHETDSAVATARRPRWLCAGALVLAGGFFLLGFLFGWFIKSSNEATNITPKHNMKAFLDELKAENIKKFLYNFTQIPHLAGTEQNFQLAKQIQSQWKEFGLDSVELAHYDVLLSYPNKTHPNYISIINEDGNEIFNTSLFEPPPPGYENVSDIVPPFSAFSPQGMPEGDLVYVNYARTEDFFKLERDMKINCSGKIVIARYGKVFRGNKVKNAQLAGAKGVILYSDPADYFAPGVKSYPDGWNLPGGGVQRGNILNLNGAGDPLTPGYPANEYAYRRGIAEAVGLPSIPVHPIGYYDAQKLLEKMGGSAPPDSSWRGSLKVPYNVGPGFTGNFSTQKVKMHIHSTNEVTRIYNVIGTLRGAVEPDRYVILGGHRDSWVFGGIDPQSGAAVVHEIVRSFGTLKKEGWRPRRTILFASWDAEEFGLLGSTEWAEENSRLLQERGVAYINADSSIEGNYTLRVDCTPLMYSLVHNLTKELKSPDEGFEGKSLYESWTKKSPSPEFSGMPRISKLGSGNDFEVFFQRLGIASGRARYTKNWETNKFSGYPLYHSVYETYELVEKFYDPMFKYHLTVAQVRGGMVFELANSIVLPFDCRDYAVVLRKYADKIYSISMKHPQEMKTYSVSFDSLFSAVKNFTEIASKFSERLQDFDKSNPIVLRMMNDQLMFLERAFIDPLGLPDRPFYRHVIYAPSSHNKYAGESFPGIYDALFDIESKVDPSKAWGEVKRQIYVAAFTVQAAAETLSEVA

Binder	fold over the background MFI signal [fold over background MFI]
B1	216
B2	25
B3	264
B4	282
B5	243
B6	193
B7	210
B8	129
B9	13
B10	14
B11	102
B12	23
B13	80
B14	125
B15	117
B16	163
B17	68
B18	200
B19	71
B20	22
B21	87
B22	80
B23	84
B24	169
B25	109
B26	47
B27	138
B28	38
